# Measurements taken from the supplement of paper PMC9170038.
# Test system: K4 kissing-loop RNA reporter
# Test: apparent KD of K4 kissing-loop reporter; higher = weaker reporter binding
# Conditions: Eterna round: R107; input ligand: arginine 13.2 mM
# Procedure: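 RNA-MaP round R107: designed RNA switches with theophylline, tryptophan, arginine or FMN aptamers are transcribed on-chip within common flanks. They are titrated with a labelled K4 kissing-loop RNA reporter in RNA-MaP buffer (100 mM Tris pH 7.5, 80 mM KCl, 4 mM MgCl2), without ligand or with the indicated ligand. Median apparent KD per design.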
# 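Note: bound reporter read as fluorescence of individual clusters on recovered sequencing chips by microscopy, with normalized cluster intensities fitted with a binding model.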
row,Sequence,apparent KD of K4 kissing-loop reporter [nM]
1,UAGGAGUGAUGUUCCAUAUCUUGAGCCGAAGGAGCGGCAUUAUAGCCAGGUAGGUCGCGGCAGAAGGUACCAGUGAUGUUGGAAA [Same State Arginine A GF5],160
2,UGGAGUUGACGAAGAGUCAACUCCUGAGAUACCAGUGACGAAAGUCACCCUUGGCAGCUCUCUGCCAGUGAUGUUGGUUUAUAAG [#07 K4 Theophylline A Same State],89.4
3,UGUACCGAAUCAGGAUAUGUCGUCGAAAGACGAAAUGGAGUGAUGUUCCUUAAACUGCGAAAGCAGACAGAAGGGAUUUGGUACU [FmnBS 29 A9+U77],386
4,CCUGCAGCUGUUACCGAGGGAUGCUACGGACGAGGACCGGUACGGCCGCCACUCGCCAGUGAUGUUGGUGAGGGAGGACGUUACU [KL-XTryp-A21],107
5,UGAUGUUUAGGUCACCCAGUGAUGUUGGAAGGAGCGUGCGAAAGCACAGGUAGGUCGCCAACCUAAAAGUGACCUGAGCAUCUAA [#SwitchBubble 8 #K4Early],210
6,UCCUAGGCUCGAAAGAGCCUAGGAUUUACUCAGGAUAUCCGGAAACGGAGAAGGGAGUAACUAGUGAUGUUAGGGAUUCCCUAUU,113
7,GUACCUUGGAAACAAGGACAGCUAACCGAAGGAGCGCGUGAAAACGCAGGUAGGUCGCGGUAGCGGAGUGAUGUUCCGCGAGAGC [Same State Arginine A GF 19],85.8
8,UGAUACCAGACGGCCGCCACUCCUGCAGUCAAAGACUGCAAGGAAAUAUUCGUCCAGUGAUGUUGGAGGACCGGGUCUGGUAUCU [TrypBX 9 #SwitchBubble #Palindromic #StaticStem],687
9,CCGGGCGGCUGAAGGAGCGGGCGGGCCCGAGUGAUGUUCGGGUGGACCGUGAGGUCCGGUGCCCAGGUAGGUCGCGGUUCCGCCC [#2 Same State - Arginine B Attempt #8 (HarryS)],183
10,GGCCGAAGAGAAGGAUAUGGUUUCACGCGUCGUUAGUGAUGUUAAUGCGCAUGCCUUAGUAUAGAGCCAGAAGGUCUGGUCAGAA [theeternabot_sameState_KL_FMN_B_34],199
11,CCAUCGCUAUUCGAUACCAGCUACUUAGUGAUGUUAAGUUAAAAUCAAUUGUAGAUUGAAAGCCCUUGGCAGCGAAUAGUGAUGG [Theophylline B K4 21],123
12,UGAUAGGACAGAAGGAGCGGUAGUGAUGUUGCCAAAAGGGUAAGGUGUCAAAAGACACCCUACCAGGUAGGUCGCUGUCCUAUCU,93.2
13,CCAACAACGAGUGAUGUUCGUUGAUCAGAAGGAGCGUCAAUAAUGACAGGUAGGUCGCUGAUAAUUGGAAAUAGGGCAAUAGCUU [Same State Arginine A GF12],113
14,AUGUACACGAUAGUGUACUCCUAGUGAUGUUAGGAUAUGCAGAUAUGCAGAAGGAACAAGUCAUCUGACAAUAGUCGGAUGACAA [FmnAX 9 #OpenEnded #K4Early],92.5
15,ACGUGAAGCGACUCCUAGUUAAACCGGGAAGGAGCGCGGAUAACCGCAGGUAGGUCGCCCGGAAGCCGGACCAGUGAUGUUGGUC [Exclusion Arginine A Gf 26],191
16,GGAUAGGACAGAGGAUAUCCUAAAGAGGCAAGAAUAACUUGUCUCAAAUGGAUGACCAGUGAUGUUGGAGAAGGCUGUCCUAUCG [FmnBX 6 - #SwitchBubble #StaticStem],194

row,Sequence,apparent KD of K4 kissing-loop reporter [nM]
1,GGGAGUAGUGCGGCCGCCACUGAGAAAGAAGAAGAAUAUAGUGAUGUUAUAUAGGAAGGGAAGAAUAGGACCGGGCAUUAGAUUU [SSTRyptB.Z],250
2,UGAUACCAGACUGAUACCAGCCAGUGAUGUUGGCUAAUCCAAGAAGGAGUCAAAGACUCCGGCCCUUGGCAGCAGUCUGGUAUCU [TheoBX 3 #SwitchBubble #StaticStem],104
3,GCCGUACGCAUGGAUACCAGCGCUCGUCACCUAGCAGUGAUGUUGCUAAUGCCACGAGGACGCCCUUGGCAGCCAUGCGUACGGC,101
4,CGCAAAUCGUCGGCCGCCACUGCAUUUGAACGCUAAUUGUCUCUGCGCGGAGUGAUGUUCUGUGCCAGGACCGGGACGGAUUUCG [theeternabot_exclusion_KL_Trp_B_21],381
5,GGAUAGGACAAAGGAUAUGGGCUAGGCAAGAAUAACUUGUCUAGCAAAUCCAUGAGGAGUGAUGUUCCAGAAGGUUGUCCUAUCG [FmnBX 1 A11+U75],116
6,UUCUACGAGUGAUGUUCGUAGUGUAUUCGCUAGGAUAUCGUUUUUUCGAGAAGGAGUGAUGAAGUGAUACGAAAGUAUCGCUUCU [FMN A 14],241
7,UGUAUGUGUCAGCGAGUGAUGUUCGACGAUACCAGACUCGAUAGAGUCCCUUGGCAGCGUAAUGCAUGCCAACUGGCACAUACUA [#SwitchBubble 12 #K4Early],651
8,AAUGAUCGUAUGGCGAGGUACUCGUGUUCGAAGGAUAUUAAUAGAAUAAGAAGGUCGAAAUCGUGUCUGGAAGUGAUGUUUCCAU [theeternabot_sameState_KL_FMN_A_32],106
9,UUUAAAUAUAGUGAUGUUAUAUAACAAUGACGAGGACCGGUACGGCCGCCACUCGAGAGAGAUAAUGGUCAUGCAAAUGUAUGUC [#15 K4 Tryptophan A Same State],684
10,CGUGAUGUAUGGCGGUUUGUCACUUAGGAUCAGGAUAUAUAAACAAAUAGAAGGGAUGGCGGAGUGAUGUUCCGCCGGCCGCCAU [FMN A Exl V8],128
11,GGGUUUGACGGAGGAUAUGCACUGAGGAGGAGAAUAUAGUGAUGUUAUAUAAGAGGAAGGAGAAGAGUAGAAGGCCGUUGGGUUU [SSFMNB.L],131
12,CGUUCCUCUGUCGAUACCAGCUUCAGUUGGCGGCCAGUGAUGUUGGUAUCGCCGAUGCCAAGCCCUUGGCAGCGACAGGAGACCC [Usleanza],165
13,ACUAGUUAAUCGGCCGCCACUUCUAGUGAUGUUAGAAUUAUCCAGAUUAUCAGCGUAGCACAUUGAAGGACCGGGAUAAGGUGGU [theeternabot_exclusion_KL_Trp_B_2],236
14,GGUAGCAUGGCGGCCGCCACUCUUCAUUAGUGAUGUUAAUGCCGAGUGCGCUAACUCCAACAGGAGAGGACCGGGCCAUGCUACC,445
15,GUAAGACCGGGACUCCAGUGAUGUUGGAGGCAGGAUAUCCAGUCGAGGAGAAGGGCCAGGGAUAUCGAGCUGCUCGGUUCGUAGU [Rerareatra],101
16,ACGACGCAUAGUGAUACCAGCACAAUAUGAGUGAUGUUCAACAUAUAAAUGUAAUAAUUAUGCCCUUGGCAGCACUAUGCGUCAG [KL-SSTheoB1],660

# Same assay, conditions: Eterna round: R107; input ligand: none
row,Sequence,apparent KD of K4 kissing-loop reporter [nM]
1,CUGACGCUGAUACGGUGGCCGCUGGUCGUGCGAGGACCGGUACGGCCGCCACUCGCAUGAGUGAUGUUCAUGUGUCGUCGUCGUC [#07 K4 Tryptophan A Exclusion],113
2,CAACAGCUUACGGCCGCCACUCCUUUAUAUGGUGCGCACCGUUGAGCUCUAGUGAUGUUGGUGCCGAGGACCGGGUAGGAAAGUA [theeternabot_sameState_KL_Trp_B_31],331
3,CUUGAUGGAAACAUCGAGUAUUUCACUGAUACCAGUAUCGAUAGAUACCCUUGGCAGCAGGAUCAGUGUUUACGAGUGAUGUUCG [Ex Theophylline A K4 9],451
4,AAACAUUGGUCUGAUACCAGCUGAUCGGAAACGAUCUUGCUGGAGUGAUGUUCCAAGUAAAGCCCUUGGCAGCAGACCGAUGAAA [MAT - Same State Theophlline B - Mod of Eli - D19],72.6
5,GGUCGCCUGAGCAGUGAUGUUGCAAGGGAAGGAGCGCGUUUUUUCGCAGGUAGGUCGCCCAAAUAAUAAGUUAAACUAGGCGACC [4.)],149
6,AAAUAGAUCAGUCAUCCAGUGAUGUUGGAAGGAGCGUGCGAAAGCACAGGUAGGUCGCCGAAAUAAAAGUGGCUGAUCAAAAUAA,143
7,CCAGUGAUAAACGAUACCAGAAAUACCUUAUUUGGCCGGCGGAGUGAUGUUCCUAAUACUUUCCCUUGGCAGCGUCGAAUGCUAG [theeternabot_sameState_KL_Theo_B_16],46
8,GUUUGGCGGACGGCCGCCACUCGGACGAGUCACAGUGAUGUUGUGGUUUGCCAGUCGACUUCAUCGAGGACCGGGUUUGUCGGGC [Exclusion Tryptophan B GF 20],395
9,GUAUAUCGAACUGAUACCAGAGAAUAUAGCAGUGAUGUUGCAUAUAUGAAUAAGACUCGACUCCCUUGGCAGCGGGAAGAUAUAC [On purpose 2],137
10,AGUUAUGUUGCGGCCGCCACUGCGCGAGUGAUGUUCGUGGCAUAUAUAAUGUUAUAUAUGCAUCACAGGACCGGGCGGCAUAGCG [Same State - Tryptophan B],375
11,UAGGAGUGAUGUUCCAUAUCUUGAGCCGAAGGAGCGGCAUUAUAGCCAGGUAGGUCGCGGCAGAAGGUACCAGUGAUGUUGGAAA [Same State Arginine A GF5],206
12,UGGAGUUGACGAAGAGUCAACUCCUGAGAUACCAGUGACGAAAGUCACCCUUGGCAGCUCUCUGCCAGUGAUGUUGGUUUAUAAG [#07 K4 Theophylline A Same State],144
13,UGUACCGAAUCAGGAUAUGUCGUCGAAAGACGAAAUGGAGUGAUGUUCCUUAAACUGCGAAAGCAGACAGAAGGGAUUUGGUACU [FmnBS 29 A9+U77],470
14,CCUGCAGCUGUUACCGAGGGAUGCUACGGACGAGGACCGGUACGGCCGCCACUCGCCAGUGAUGUUGGUGAGGGAGGACGUUACU [KL-XTryp-A21],109
15,UGAUGUUUAGGUCACCCAGUGAUGUUGGAAGGAGCGUGCGAAAGCACAGGUAGGUCGCCAACCUAAAAGUGACCUGAGCAUCUAA [#SwitchBubble 8 #K4Early],511
16,UCCUAGGCUCGAAAGAGCCUAGGAUUUACUCAGGAUAUCCGGAAACGGAGAAGGGAGUAACUAGUGAUGUUAGGGAUUCCCUAUU,123
17,GUACCUUGGAAACAAGGACAGCUAACCGAAGGAGCGCGUGAAAACGCAGGUAGGUCGCGGUAGCGGAGUGAUGUUCCGCGAGAGC [Same State Arginine A GF 19],88.8
18,UGAUACCAGACGGCCGCCACUCCUGCAGUCAAAGACUGCAAGGAAAUAUUCGUCCAGUGAUGUUGGAGGACCGGGUCUGGUAUCU [TrypBX 9 #SwitchBubble #Palindromic #StaticStem],820
19,CCGGGCGGCUGAAGGAGCGGGCGGGCCCGAGUGAUGUUCGGGUGGACCGUGAGGUCCGGUGCCCAGGUAGGUCGCGGUUCCGCCC [#2 Same State - Arginine B Attempt #8 (HarryS)],162
20,GGCCGAAGAGAAGGAUAUGGUUUCACGCGUCGUUAGUGAUGUUAAUGCGCAUGCCUUAGUAUAGAGCCAGAAGGUCUGGUCAGAA [theeternabot_sameState_KL_FMN_B_34],219
21,CCAUCGCUAUUCGAUACCAGCUACUUAGUGAUGUUAAGUUAAAAUCAAUUGUAGAUUGAAAGCCCUUGGCAGCGAAUAGUGAUGG [Theophylline B K4 21],139
